Target: the molecule itself
Assay: crystal structure

B1: human pyruvate kinase M2 (His6-hPKM2) (enzyme)
chain: not shown
  stoichiometry N: 4
